Test results as given in patent US20230331862A1 (SHANGHAI GENBASE BIOTECHNOLOGY, published 2023).

T1: CEACAM5 (CD66e) on tumour cells (human, UniProt P06731 35-685, glycosylated (natural, as on tumour cells))
T1 construct: whole, on cells; One molecule for CEACAM5 on all three cell lines; the cell line is named under assay; also called natural CEACAM5 antigen; Lovo cells
T1 sequence (looked up): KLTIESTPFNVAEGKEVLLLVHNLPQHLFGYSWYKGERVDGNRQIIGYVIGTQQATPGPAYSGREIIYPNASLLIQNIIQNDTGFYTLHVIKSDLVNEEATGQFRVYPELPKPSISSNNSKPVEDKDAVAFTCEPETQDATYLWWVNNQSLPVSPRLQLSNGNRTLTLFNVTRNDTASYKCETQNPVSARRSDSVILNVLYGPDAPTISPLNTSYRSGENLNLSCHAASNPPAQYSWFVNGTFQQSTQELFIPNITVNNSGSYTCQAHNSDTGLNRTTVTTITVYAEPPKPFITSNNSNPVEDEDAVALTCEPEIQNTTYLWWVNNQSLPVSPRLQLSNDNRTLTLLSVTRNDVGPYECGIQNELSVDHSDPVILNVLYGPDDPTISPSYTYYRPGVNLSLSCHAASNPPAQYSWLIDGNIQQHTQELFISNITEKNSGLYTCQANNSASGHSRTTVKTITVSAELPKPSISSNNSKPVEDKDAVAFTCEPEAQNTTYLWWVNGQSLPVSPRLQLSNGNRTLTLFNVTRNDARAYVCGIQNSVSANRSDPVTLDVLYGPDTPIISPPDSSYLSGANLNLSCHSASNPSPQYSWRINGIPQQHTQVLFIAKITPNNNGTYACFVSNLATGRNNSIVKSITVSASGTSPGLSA

T2: recombinant CEACAM5 antigen (Sinobiological, 11077-H08H) (UniProt P06731 35-685)
T2 construct: Bought protein; also called CEACAM5-His recombinant protein; CEACAM5-His antigen; not shown: His tag
T2 sequence (looked up): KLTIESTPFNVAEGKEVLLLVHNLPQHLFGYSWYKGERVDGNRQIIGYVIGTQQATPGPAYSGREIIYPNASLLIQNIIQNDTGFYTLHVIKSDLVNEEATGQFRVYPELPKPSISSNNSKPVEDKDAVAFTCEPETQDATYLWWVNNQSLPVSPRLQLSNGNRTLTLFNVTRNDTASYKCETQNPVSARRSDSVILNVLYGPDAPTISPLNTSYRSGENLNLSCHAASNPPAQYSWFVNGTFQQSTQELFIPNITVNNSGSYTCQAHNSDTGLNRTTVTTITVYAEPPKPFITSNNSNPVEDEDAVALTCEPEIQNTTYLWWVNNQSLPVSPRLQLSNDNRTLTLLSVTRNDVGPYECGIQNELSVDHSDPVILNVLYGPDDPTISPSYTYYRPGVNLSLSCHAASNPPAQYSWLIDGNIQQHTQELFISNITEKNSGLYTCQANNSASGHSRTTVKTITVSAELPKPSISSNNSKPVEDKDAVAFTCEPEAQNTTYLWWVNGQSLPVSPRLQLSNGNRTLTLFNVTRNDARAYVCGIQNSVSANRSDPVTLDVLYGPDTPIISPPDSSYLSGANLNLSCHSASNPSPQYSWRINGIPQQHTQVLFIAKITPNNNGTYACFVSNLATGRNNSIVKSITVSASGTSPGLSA


Columns and labels:
[1] = target: T1, CEACAM5 (CD66e) on tumour cells; assay: flow cytometry on LS174T cells, anti-human IgG Fc-APC
Protocol: (§1) After the cells were digested with TrypLE, they were centrifuged and resuspended in DPBS solution containing 2% BSA (FACS buffer solution, 4° C.), and added into a U-bottom 96-well plate, 5×10⁵/100 μl/well, and antibody diluted in concentration gradient was added, incubated at 4° C. for 1 hour, the supernatant was discarded after centrifugation; 100 μl of solution containing anti-human IgG Fc-APC secondary antibody was added and incubated at 4° C. for 1 hour, washing was performed once with FACS buffer, resuspending was performed in 200 μl FACS buffer, and the fluorescence signal value was read on BD Cantoll.

[2] = target: T2, recombinant CEACAM5 antigen …; assay: ELISA, coated recombinant CEACAM5-His 1 µg/ml, anti-human IgG Fc-HRP
Protocol: The recombinant CEACAM5 antigen (Sinobiological, 11077-H08H) was diluted to 1 μg/ml with DPBS solution, added to a 96-well plate, 100 μl per well, and coated overnight at 2-8° C.; the coating solution was discarded, washing was performed twice with PBS solution, PBS solution containing 2% BSA was added, and blocked at room temperature for 2 hours; the blocking solution was discarded, the antibody diluted in concentration gradient was added, and incubated at 37° C. for 1 hour; the antibody solution was discarded, and washing was performed for 4 times with PBS solution containing 0.05% Tween 20 (PBST solution); anti-human IgG Fc-HRP secondary antibody was added and incubated at 37° C. for 30 minutes; washing was performed for 4 times with PBST solution, TMB chromogenic substrate was added, color development was performed for 5-10 minutes, and the reaction was terminated with equal volume of 1M H₂SO₄; the absorbance at 450 nm was read on a microplate reader.

[3] = target: T1, CEACAM5 (CD66e) on tumour cells; assay: flow cytometry on KATO3 cells, anti-human IgG Fc-APC
Protocol: as §1

[4] = target: T1, CEACAM5 (CD66e) on tumour cells; assay: flow cytometry on Lovo monoclonal clone 1-2, fluorescent secondary antibody
Protocol: (§2) After labeling, anti-mouse Fc-PE fluorescence-labeled secondary antibody was added, sorted into 96-well plate by BD FACS Aria, after monoclonal culture was carried out, MN14 was used to detect the expression of monoclonal CEACAM5, and the results were as follows: […]

[5] = target: T1, CEACAM5 (CD66e) on tumour cells; assay: flow cytometry on Lovo monoclonal clone 5-1, fluorescent secondary antibody
Protocol: as §2

[6] = target: T1, CEACAM5 (CD66e) on tumour cells; assay: flow cytometry on Lovo monoclonal clone 1-1, fluorescent secondary antibody
Protocol: as §2

[7] = target: T1, CEACAM5 (CD66e) on tumour cells; assay: flow cytometry on Lovo monoclonal clone 4-2, fluorescent secondary antibody
Protocol: as §2

[8] = target: T1, CEACAM5 (CD66e) on tumour cells; assay: flow cytometry on Lovo monoclonal clone 2-2, fluorescent secondary antibody
Protocol: as §2

[9] = target: T1, CEACAM5 (CD66e) on tumour cells; assay: flow cytometry on Lovo monoclonal clone 3-2, fluorescent secondary antibody
Protocol: as §2

[10] = target: T1, CEACAM5 (CD66e) on tumour cells; assay: flow cytometry on Lovo monoclonal clone 5-2, fluorescent secondary antibody
Protocol: as §2

[11] = target: T1, CEACAM5 (CD66e) on tumour cells; assay: flow cytometry on Lovo monoclonal clone 6-1, fluorescent secondary antibody
Protocol: as §2

[12] = target: T1, CEACAM5 (CD66e) on tumour cells; assay: flow cytometry on Lovo monoclonal clone 8-1, fluorescent secondary antibody
Protocol: as §2

[13] = target: T1, CEACAM5 (CD66e) on tumour cells; assay: flow cytometry on Lovo monoclonal clone 4-1, fluorescent secondary antibody
Protocol: as §2

[14] = target: T1, CEACAM5 (CD66e) on tumour cells; assay: flow cytometry on Lovo monoclonal clone 2-1, fluorescent secondary antibody
Protocol: as §2

[15] = target: T1, CEACAM5 (CD66e) on tumour cells; assay: flow cytometry on Lovo monoclonal clone 8-2, fluorescent secondary antibody
Protocol: as §2

[16] = target: T1, CEACAM5 (CD66e) on tumour cells; assay: flow cytometry on Lovo monoclonal clone 6-2, fluorescent secondary antibody
Protocol: as §2

[17] = target: T1, CEACAM5 (CD66e) on tumour cells; assay: flow cytometry on Lovo monoclonal clone 7-2, fluorescent secondary antibody
Protocol: as §2

[18] = target: T1, CEACAM5 (CD66e) on tumour cells; assay: flow cytometry on Lovo monoclonal clone 3-1, fluorescent secondary antibody
Protocol: as §2

[19] = target: T1, CEACAM5 (CD66e) on tumour cells; assay: flow cytometry on Lovo monoclonal clone 7-1, fluorescent secondary antibody
Protocol: as §2

EC50 [1] | EC50 [2] | EC50 [3] | CEACAM5 positive ratio, % [4] | CEACAM5 positive ratio, % [5] | CEACAM5 positive ratio, % [6] | CEACAM5 positive ratio, % [7] | CEACAM5 positive ratio, % [8] | CEACAM5 positive ratio, % [9] | CEACAM5 positive ratio, % [10] | CEACAM5 positive ratio, % [11] | CEACAM5 positive ratio, % [12] | CEACAM5 positive ratio, % [13] | CEACAM5 positive ratio, % [14] | CEACAM5 positive ratio, % [15] | CEACAM5 positive ratio, % [16] | CEACAM5 positive ratio, % [17] | CEACAM5 positive ratio, % [18] | CEACAM5 positive ratio, % [19] | Binder
11.9 µg/mL | 0.016 µg/mL | 13.9 µg/mL |  |  |  |  |  |  |  |  |  |  |  |  |  |  |  |  | M18 (7G1) chimeric recombinant antibody (antibody, V domains shown) VH: QIQLVQSGPELKKPGETVKISCKASGYTFTTYGMTWVKQAPGKGLKWMGWINTYSGVPTYIDDFKGRFAFSLETSASTAYLQINNLKNEDTATYFCGRKDLLGFMDYWGQGTSVTVSS VL: DIQMTQSPSSLSASLGGKVTITCKTSQDINKFMAWYQHKPGKGPRLLIRYTSTLQPGIPSRFSGSGSGRDYSFSIRNLEPEDIATYYCLQYDDLTWTFGGGTKLEI
1.5 µg/mL | 0.013 µg/mL | 2.7 µg/mL |  |  |  |  |  |  |  |  |  |  |  |  |  |  |  |  | M17 (6A8) chimeric recombinant antibody (antibody, V domains shown) VH: EVQLQQSGAELVRPGASVKLSCTASGFNIKDDYMHWVKQRPEQGLEWIGWIDPENGDTEYASKFQGKATITADTSSNTAYLLLSSLTSEDTAVYYCTTIYYYGSRGAMDYWGQGTSVTVSS VL: QIVLTQSPAIMSASPGEKVTITCSASSSVSYMHWFQQKPGTSPKLWIYTTSTLASGVPARFSGSGSGTSYFLTISRMEAEDAATYYCHQRSSYPLTFGAGTKLELK
 |  |  | 95.6% | 76.6% | 90.5% | 82.7% | 96.4% | 95.9% | 96.9% | 98.6% | 97.9% | 93.7% | 95.6% | 96.8% | 88.1% | 96.9% | 97.8% | 93.9% | anti-CEACAM5 antibody hMN14 (antibody, human IgG1, kappa, V domains shown, T0002 prints whole heavy and light chains under the labels 'hMN14 VH' and 'hMN14 VL') VH: EVQLVESGGGVVQPGRSLRLSCSASGFDFTTYWMSWVRQAPGKGLEWIGEIHPDSSTINYAPSLKDRFTISRDNAKNTLFLQMDSLRPEDTGVYFCASLYFGFPWFAYWGQGTPVTVSS VL: DIQLTQSPSSLSASVGDRVTITCKASQDVGTSVAWYQQKPGKAPKLLIYWTSTRHTGVPSRFSGSGSGTDFTFTISSLQPEDIATYYCQQYSLYRSFGQGTKVEIKR
